Assays:
[1] = molecular target: T1, ATAD3A (human protein having the amino acid sequence SEQ ID NO:6) (human, UniProt Q9NVI7 2-586, limits assumed); experiment: CR2361 affinity column loaded with NB4 cell lysate, elution at pH 2.7, SDS-PAGE bands identified by MALDI-MS
T1 construct: Endogenous protein from a RIPA lysate of NB4 cells; Bands of 30, 40 and 75 kDa eluted from the CR2361 column gave ATAD3A peptides; No peptides were identified from the 150 kDa band
T1 sequence: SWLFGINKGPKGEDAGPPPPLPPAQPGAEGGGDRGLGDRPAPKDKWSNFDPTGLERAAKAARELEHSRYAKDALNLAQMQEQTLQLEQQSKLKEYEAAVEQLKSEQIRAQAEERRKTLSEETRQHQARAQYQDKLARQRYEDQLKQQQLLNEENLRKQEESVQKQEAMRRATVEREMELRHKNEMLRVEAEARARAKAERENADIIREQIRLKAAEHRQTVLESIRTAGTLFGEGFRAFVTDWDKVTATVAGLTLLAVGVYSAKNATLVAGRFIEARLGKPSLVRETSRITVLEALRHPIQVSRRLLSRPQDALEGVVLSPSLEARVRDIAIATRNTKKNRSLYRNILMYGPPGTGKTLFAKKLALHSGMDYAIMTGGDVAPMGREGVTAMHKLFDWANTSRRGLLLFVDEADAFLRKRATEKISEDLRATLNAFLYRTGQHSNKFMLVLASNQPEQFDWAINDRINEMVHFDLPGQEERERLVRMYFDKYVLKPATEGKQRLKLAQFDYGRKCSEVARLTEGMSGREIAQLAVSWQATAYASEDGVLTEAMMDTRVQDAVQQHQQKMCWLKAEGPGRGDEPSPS
Description: In advance the IgG1s were passed over a 100 kDa ultracentrifugal device to remove incomplete small IgG fragments.
For the purification of the target antigen of CR2361, an affinity column was prepared as described above for CR2401. A cell lysate of 4*10⁹ NB4 cell was prepared in RIPA buffer, according to the method described in Example 5. The cell lysate was treated essentially as described above and applied to the negative control affinity column that was connected in series to the CR2361 affinity column and an AKTA FPLC 900. The system was equilibrated with RIPA buffer. The lysate was applied to the columns at 1 ml/min and the columns were washed with 5 column volumes of RIPA buffer, followed by a salt gradient from 150 mM NaCl to 500 mM NaCl, a wash with 5 column volumes TX-100 buffer (1% Triton X-100, 150 mM NaCl, 50 mM Tris pH 7.4, protease inhibitors (Roche)) and an elution of 5 column volumes glycine, pH 2.7, whereby after 1 column volume of elution buffer the flow through was put for 10 minutes on hold to enhance the release of immune complexes. Next, the column was washed with 5 column volumes of TX-100 buffer. The eluted fractions of 0.5 ml were neutralized with 20 μl 2 M Tris/HCl, pH 7.4, and 20 μl of the samples were run on a non-reducing SDS-PAGE Criterion gel and stained with silver stain according to standard techniques known to the skilled artisan. […]

[2] = molecular target: T2, mycATAD3A (ATAD3A with a myc tag at the 5' end) (human, UniProt Q9NVI7 2-586); experiment: immunoprecipitation from lysate of transfected HEK293T cells, immunoblot with anti-myc
T2 construct: Expressed in transfected HEK293T cells and immunoprecipitated from a 1% Triton X-100 lysate; also called 5' myc-tagged ATAD3A
T2 sequence: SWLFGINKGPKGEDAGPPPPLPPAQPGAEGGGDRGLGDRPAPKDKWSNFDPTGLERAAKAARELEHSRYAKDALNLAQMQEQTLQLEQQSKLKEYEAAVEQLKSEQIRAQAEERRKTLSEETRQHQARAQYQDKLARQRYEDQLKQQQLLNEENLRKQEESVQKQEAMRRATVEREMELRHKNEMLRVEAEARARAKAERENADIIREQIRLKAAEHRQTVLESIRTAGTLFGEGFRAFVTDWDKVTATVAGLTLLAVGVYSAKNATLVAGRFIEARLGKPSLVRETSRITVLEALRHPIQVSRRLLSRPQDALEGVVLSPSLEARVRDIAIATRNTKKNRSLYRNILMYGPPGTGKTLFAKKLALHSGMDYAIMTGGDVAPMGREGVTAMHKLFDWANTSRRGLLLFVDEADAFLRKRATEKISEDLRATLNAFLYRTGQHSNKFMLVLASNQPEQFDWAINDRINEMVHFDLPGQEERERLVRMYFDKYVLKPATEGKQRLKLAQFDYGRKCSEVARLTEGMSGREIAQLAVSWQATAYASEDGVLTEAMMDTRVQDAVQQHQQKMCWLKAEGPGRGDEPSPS

[3] = molecular target: T3, ATAD3Amyc (ATAD3A with a myc tag at the 3' end) (human, UniProt Q9NVI7 1-586); experiment: as above
T3 construct: Expressed in transfected HEK293T cells and immunoprecipitated from a 1% Triton X-100 lysate; also called 3' myc-tagged ATAD3A; not shown: C-terminal myc tag, in frame from vector pcDNA3.1/hismycA
T3 sequence: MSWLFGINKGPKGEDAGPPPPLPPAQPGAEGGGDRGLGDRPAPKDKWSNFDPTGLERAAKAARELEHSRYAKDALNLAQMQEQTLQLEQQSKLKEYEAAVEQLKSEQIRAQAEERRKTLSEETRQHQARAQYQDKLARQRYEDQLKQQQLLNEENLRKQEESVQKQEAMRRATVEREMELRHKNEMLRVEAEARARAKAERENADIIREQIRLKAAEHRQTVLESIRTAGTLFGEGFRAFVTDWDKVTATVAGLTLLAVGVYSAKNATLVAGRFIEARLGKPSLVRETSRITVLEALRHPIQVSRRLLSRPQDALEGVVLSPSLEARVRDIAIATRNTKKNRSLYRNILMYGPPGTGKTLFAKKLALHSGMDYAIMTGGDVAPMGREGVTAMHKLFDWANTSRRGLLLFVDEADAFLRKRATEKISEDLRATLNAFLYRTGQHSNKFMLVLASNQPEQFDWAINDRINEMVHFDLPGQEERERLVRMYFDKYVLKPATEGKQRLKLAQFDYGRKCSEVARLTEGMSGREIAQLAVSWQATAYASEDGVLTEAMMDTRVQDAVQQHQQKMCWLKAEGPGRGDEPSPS

Measured: binding result

B1: CR2361 IgG1 (antibody, V domains shown)
VH: EVQLVESGGGLVQPGRSLRLSCAASGFTFDDYGMSWVRQAPGKGLEWVSLISWDGGSTYYADSVKGRFTISRDNSKNSLYLQMNSLRAEDTAVYYCAKWAPSHSFDYWGQGTLVTVSS
VL: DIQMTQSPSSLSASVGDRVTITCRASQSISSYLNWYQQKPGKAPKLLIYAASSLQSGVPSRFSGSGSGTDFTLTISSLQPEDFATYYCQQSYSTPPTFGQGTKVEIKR
notes: also called IgG1 CR2361; CR24361 (apparent misprint)
binds: all assays above

Source: US20100297153A1 (CRUCELL HOLLAND B V, published 2010)
